This is an account of results in article PMC7917804.

In this assay the target is poly(A)-binding protein (PABP), P11940. The assay is described as follows: co-immunoprecipitation with anti-FLAG antibody, Western blot quantified with ImageJ. The following applies: chain shown with the change, HeLa cells, parent: est. 1.0, read off a plot. In general terms: A western blot detects proteins with antibodies after separation by electrophoresis.
Chain of poly(A)-binding protein (PABP), P11940 (P11940 whole entry): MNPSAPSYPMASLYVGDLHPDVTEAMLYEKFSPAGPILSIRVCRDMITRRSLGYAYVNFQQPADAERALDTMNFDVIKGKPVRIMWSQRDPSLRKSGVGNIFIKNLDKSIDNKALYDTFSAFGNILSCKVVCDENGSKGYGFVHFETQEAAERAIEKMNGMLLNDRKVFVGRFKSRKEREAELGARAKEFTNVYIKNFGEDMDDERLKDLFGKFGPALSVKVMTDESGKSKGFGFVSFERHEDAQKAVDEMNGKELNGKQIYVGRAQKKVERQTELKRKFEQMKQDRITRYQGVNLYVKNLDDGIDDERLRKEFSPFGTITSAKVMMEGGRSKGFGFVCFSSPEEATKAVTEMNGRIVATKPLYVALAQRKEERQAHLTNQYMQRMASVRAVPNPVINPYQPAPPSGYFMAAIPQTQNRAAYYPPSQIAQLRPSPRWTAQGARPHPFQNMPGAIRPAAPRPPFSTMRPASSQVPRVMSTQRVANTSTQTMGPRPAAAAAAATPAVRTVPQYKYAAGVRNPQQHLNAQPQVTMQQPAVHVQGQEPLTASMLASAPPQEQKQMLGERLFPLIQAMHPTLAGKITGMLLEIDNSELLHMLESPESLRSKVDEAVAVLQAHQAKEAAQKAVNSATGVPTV

B1: FLAG-HA-SBP (FHS)-tagged full-length TNRC6A, wild type, Q8NDV7-2 S1616A; S1691A (protein)
chain: MDADSASSSESERNITIMASGNTGGEKDGLRNSTGLGSQNKFVVGSSSNNVGHGSSTGPWGFSHGAIISTCQVSVDAPESKSESSNNRMNAWGTVSSSSNGGLNPSTLNSASNHGAWPVLENNGLALKGPVGSGSSGINIQCSTIGQMPNNQSINSKVSGGSTHGTWGSLQETCESEVSGTQKVSFSGQPQNITTEMTGPNNTTNFMTSSLPNSGSVQNNELPSSNTGAWRVSTMNHPQMQAPSGMNGTSLSHLSNGESKSGGSYGTTWGAYGSNYSGDKCSGPNGQANGDTVNATLMQPGVNGPMGTNFQVNTNKGGGVWESGAANSQSTSWGSGNGANSGGSRRGWGTPAQNTGTNLPSVEWNKLPSNQHSNDSANGNGKTFTNGWKSTEEEDQGSATSQTNEQSSVWAKTGGTVESDGSTESTGRLEEKGTGESQSRDRRKIDQHTLLQSIVNRTDLDPRVLSNSGWGQTPIKQNTAWDTETSPRGERKTDNGTEAWGSSATQTFNSGACIDKTSPNGNDTSSVSGWGDPKPALRWGDSKGSNCQGGWEDDSAATGMVKSNQWGNCKEEKAAWNDSQKNKQGWGDGQKSSQGWSVSASDNWGETSRNNHWGEANKKSSSGGSDSDRSVSGWNELGKTSSFTWGNNINPNNSSGWDESSKPTPSQGWGDPPKSNQSLGWGDSSKPVSSPDWNKQQDIVGSWGIPPATGKPPGTGWLGGPIPAPAKEEEPTGWEEPSPESIRRKMEIDDGTSAWGDPSKYNYKNVNMWNKNVPNGNSRSDQQAQVHQLLTPASAISNKEASSGSGWGEPWGEPSTPATTVDNGTSAWGKPIDSGPSWGEPIAAASSTSTWGSSSVGPQALSKSGPKSMQDGWCGDDMPLPGNRPTGWEEEEDVEIGMWNSNSSQELNSSLNWPPYTKKMSSKGLSGKKRRRERGMMKGGNKQEEAWINPFVKQFSNISFSRDSPEENVQSNKMDLSGGMLQDKRMEIDKHSLNIGDYNRTVGKGPGSRPQISKESSMERNPYFDKDGIVADESQNMQFMSSQSMKLPPSNSALPNQALGSIAGLGMQNLNSVRQNGNPSMFGVGNTAAQPRGMQQPPAQPLSSSQPNLRAQVPPPLLSPQVPVSLLKYAPNNGGLNPLFGPQQVAMLNQLSQLNQLSQISQLQRLLAQQQRAQSQRSVPSGNRPQQDQQGRPLSVQQQMMQQSRQLDPNLLVKQQTPPSQQQPLHQPAMKSFLDNVMPHTTPELQKGPSPINAFSNFPIGLNSNLNVNMDMNSIKEPQSRLRKWTTVDSISVNTSLDQNSSKHGAISSGFRLEESPFVPYDFMNSSTSPASPPGSIGDGWPRAKSPNGSSSVNWPPEFRPGEPWKGYPNIDPETDPYVTPGSVINNLSINTVREVDHLRDRNSGSSSSLNTTLPSTSAWSSIRASNYNVPLSSTAQSTSARNSDSKLTWSPGSVTNTSLAHELWKVPLPPKNITAPSRPPPGLTGQKPPLSTWDNSPLRIGGGWGNSDARYTPGSSWGESSSGRITNWLVLKNLTPQIDGSTLRTLCMQHGPLITFHLNLPHGNALVRYSSKEEVVKAQKSLHMCVLGNTTILAEFASEEEISRFFAQSQSLTPAPGWQSLGSSQSRLGSLDCSHSFSSRTDLNHWNGAGLSGTNCGDLHGTSLWGTPHYSTSLWGPPSSSDPRGISSPAPINAFLSVDHLGGGGESM
With B1, the response (two independent experiments) was determined as 0.89.

B2: FLAG-HA-SBP (FHS)-tagged TNRC6A-SD-WT, Q8NDV7-2 S1616A; S1691A (protein)
chain: PLHQPAMKSFLDNVMPHTTPELQKGPSPINAFSNFPIGLNSNLNVNMDMNSIKEPQSRLRKWTTVDSISVNTSLDQNSSKHGAISSGFRLEESPFVPYDFMNSSTSPASPPGSIGDGWPRAKSPNGSSSVNWPPEFRPGEPWKGYPNIDPETDPYVTPGSVINNLSINTVREVDHLRDRNSGSSSSLNTTLPSTSAWSSIRASNYNVPLSSTAQSTSARNSDSKLTWSPGSVTNTSLAHELWKVPLPPKNITAPSRPPPGLTGQKPPLSTWDNSPLRIGGGWGNSDARYTPGSSWGESSSGRITNWLVLKNLTPQIDGSTLRTLCMQHGPLITFHLNLPHGNALVRYSSKEEVVKAQKSLHMCVLGNTTILAEFASEEEISRFFAQSQSLTPAPGWQSLGSSQSRLGSLDCSHSFSSRTDLNHWNGAGLSGTNCGDLHGTSLWGTPHYSTSLWGPPSSSDPRGISSPAPINAFLSVDHLGGGGESM
As to B2, for the setting “three independent experiments”, the response turned out to be 0.81.
